Among the data in paper PMC4666776 are SC50 (sEH values, retold here.

Assay [1] addresses biotinylated nanobody S33 (llama (Lama glama)). The assay can be described thus: ELISA. (In general: An ELISA detects its analyte on a solid surface through an enzyme-linked reagent.)
Assay [2] concerns the target biotinylated nanobody S7 (llama (Lama glama)). The assay can be described thus: ELISA.

B1: recombinant human soluble epoxide hydrolase (enzyme)
chain: MTLRAAVFDLDGVLALPAVFGVLGRTEEALALPRGLLNDAFQKGGPEGATTRLMKGEITLSQWIPLMEENCRKCSETAKVCLPKNFSIKEIFDKAISARKINRPMLQAALMLRKKGFTTAILTNTWLDDRAERDGLAQLMCELKMHFDFLIESCQVGMVKPEPQIYKFLLDTLKASPSEVVFLDDIGANLKPARDLGMVTILVQDTDTALKELEKVTGIQLLNTPAPLPTSCNPSDMSHGYVTVKPRVRLHFVELGSGPAVCLCHGFPESWYSWRYQIPALAQAGYRVLAMDMKGYGESSAPPEIEEYCMEVLCKEMVTFLDKLGLSQAVFIGHDWGGMLVWYMALFYPERVRAVASLNTPFIPANPNMSPLESIKANPVFDYQLYFQEPGVAEAELEQNLSRTFKSLFRASDESVLSMHKVCEAGGLFVNSPEEPSLSRMVTEEEIQFYVQQFKKSGFRGPLNWYRNMERNWKWACKSLGRKILIPALMVTAEKDFVLVPQMSQHMEDWIPHLKRGHIEDCGHWTQMDKPTEVNQILIKWLDSDARNPPVVSKM
In assay [1], B1 showed an SC50 (sEH at 50% signal saturation; detecting Nb S16) of 4100 ng/mL and an SC50 (sEH at 50% signal saturation; detecting Nb S49) of 249 ng/mL. This molecule yielded an SC50 (sEH at 50% signal saturation; detecting HA-tagged Nb S43) in assay [2] of 3.97 ng/mL.
